Measurements: patent US20260209362A1 (VIB VZW, published 2026)

T1: biotinylated recombinant human IL-12Rβ2 (human, UniProt Q99665 24-622, random biotinylated)
T1 construct: Recombinant protein produced in-house, biotinylated; also called hIL-12RB2; human IL-12RB2
T1 sequence: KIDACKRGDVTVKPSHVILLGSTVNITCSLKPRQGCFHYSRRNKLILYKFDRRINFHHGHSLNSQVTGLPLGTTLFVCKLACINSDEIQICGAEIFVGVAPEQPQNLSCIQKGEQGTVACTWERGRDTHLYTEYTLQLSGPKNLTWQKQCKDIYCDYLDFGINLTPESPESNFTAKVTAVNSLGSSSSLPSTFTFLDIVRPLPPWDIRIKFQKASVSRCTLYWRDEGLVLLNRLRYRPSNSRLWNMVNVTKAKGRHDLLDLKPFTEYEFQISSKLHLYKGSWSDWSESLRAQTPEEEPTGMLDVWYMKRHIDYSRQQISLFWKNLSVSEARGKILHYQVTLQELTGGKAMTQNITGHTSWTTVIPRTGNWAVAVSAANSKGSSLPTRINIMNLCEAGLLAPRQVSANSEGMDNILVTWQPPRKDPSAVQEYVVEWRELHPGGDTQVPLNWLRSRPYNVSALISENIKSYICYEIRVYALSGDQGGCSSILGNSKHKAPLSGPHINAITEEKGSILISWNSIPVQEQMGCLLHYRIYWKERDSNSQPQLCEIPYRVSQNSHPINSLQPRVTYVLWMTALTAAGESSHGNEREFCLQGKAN

T2: biotinylated recombinant mouse IL-12Rβ2 (mouse, UniProt P97378 24-637, random biotinylated)
T2 construct: Recombinant protein produced in-house, biotinylated; also called mIL-12RB2; mouse IL-12RB2
T2 sequence: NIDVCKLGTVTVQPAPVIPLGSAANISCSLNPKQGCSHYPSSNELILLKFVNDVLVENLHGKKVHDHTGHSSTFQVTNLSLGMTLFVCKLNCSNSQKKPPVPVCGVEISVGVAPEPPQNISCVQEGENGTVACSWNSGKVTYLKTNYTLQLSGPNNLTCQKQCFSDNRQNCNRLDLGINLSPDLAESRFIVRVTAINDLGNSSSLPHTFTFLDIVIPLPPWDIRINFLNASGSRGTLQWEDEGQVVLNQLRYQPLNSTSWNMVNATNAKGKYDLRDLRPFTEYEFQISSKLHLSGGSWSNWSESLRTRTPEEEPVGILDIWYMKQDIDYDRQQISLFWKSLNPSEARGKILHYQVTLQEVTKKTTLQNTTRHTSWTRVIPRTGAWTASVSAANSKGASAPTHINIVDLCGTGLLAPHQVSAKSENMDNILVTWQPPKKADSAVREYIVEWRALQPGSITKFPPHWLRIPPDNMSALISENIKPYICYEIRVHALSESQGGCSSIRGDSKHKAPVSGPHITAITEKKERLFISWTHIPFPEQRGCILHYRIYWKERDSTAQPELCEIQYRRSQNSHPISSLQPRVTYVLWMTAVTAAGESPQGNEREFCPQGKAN

T3: biotinylated recombinant mouse IL-12Rβ2 (produced in-house) (mouse, UniProt P97378 24-637, randomly biotinylated)
T3 construct: also called mIL-12RB2; mouse IL-12RB2
T3 sequence: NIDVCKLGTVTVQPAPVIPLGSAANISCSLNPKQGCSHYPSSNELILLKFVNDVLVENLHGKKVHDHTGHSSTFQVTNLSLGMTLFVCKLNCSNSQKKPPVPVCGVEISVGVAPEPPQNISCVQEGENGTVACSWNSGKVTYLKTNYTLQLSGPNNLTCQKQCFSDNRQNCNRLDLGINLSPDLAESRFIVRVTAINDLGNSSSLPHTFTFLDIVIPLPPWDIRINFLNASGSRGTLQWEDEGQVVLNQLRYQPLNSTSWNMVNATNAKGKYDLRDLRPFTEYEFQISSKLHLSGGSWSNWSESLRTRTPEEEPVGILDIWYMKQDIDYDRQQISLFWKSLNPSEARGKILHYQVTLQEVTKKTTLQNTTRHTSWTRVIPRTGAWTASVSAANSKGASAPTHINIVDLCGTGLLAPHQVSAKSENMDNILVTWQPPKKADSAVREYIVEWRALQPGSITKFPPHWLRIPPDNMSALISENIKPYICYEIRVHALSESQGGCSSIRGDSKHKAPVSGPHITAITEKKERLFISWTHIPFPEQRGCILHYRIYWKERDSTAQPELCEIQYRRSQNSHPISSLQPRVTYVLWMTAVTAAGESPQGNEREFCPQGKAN

T4: biotinylated recombinant human IL-12Rβ2 (produced in-house) (human, UniProt Q99665 24-622, randomly biotinylated)
T4 construct: also called hIL-12RB2; human IL-12RB2
T4 sequence: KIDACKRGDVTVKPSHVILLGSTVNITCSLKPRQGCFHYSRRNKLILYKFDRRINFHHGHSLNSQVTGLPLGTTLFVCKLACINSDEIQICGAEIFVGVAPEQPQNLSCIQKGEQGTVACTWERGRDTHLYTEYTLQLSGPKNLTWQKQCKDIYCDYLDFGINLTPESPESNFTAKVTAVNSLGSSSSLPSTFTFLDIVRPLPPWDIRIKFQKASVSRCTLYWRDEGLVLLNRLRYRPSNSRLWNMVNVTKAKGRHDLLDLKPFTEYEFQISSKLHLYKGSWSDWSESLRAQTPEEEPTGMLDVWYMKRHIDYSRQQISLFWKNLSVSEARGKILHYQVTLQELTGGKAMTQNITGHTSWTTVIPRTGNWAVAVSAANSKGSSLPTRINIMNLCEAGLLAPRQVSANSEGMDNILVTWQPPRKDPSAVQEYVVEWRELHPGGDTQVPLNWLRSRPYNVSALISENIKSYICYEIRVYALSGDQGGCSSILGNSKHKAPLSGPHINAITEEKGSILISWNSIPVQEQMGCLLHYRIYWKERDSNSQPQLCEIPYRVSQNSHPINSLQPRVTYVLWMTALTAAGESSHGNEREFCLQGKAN


Experiments:
[1] = molecular target: T1, biotinylated recombinant human IL-12Rβ2; test: ELISA, periplasmic extract on biotinylated hIL-12Rβ2, signal over control wells
[2] = molecular target: T1, biotinylated recombinant human IL-12Rβ2; test: BLI (Octet), periplasmic extract on biotinylated hIL-12Rβ2 on streptavidin tips
[3] = molecular target: T1, biotinylated recombinant human IL-12Rβ2; test: BLI (Octet), periplasmic extract on biotinylated hIL-12Rβ2 on streptavidin tips, 1:1 model
[4] = molecular target: T2, biotinylated recombinant mouse IL-12Rβ2; test: ELISA, periplasmic extract on biotinylated mIL-12Rβ2, signal over control wells
[5] = molecular target: T3, biotinylated recombinant mouse IL-12Rβ2 …; test: ELISA, periplasmic extract on biotinylated mouse IL-12Rβ2; control streptavidin-coated blocked wells
[6] = molecular target: T4, biotinylated recombinant human IL-12Rβ2 …; test: ELISA, periplasmic extract on biotinylated human IL-12Rβ2; control streptavidin-coated blocked wells

Row | Binder | ELISA binding hIL-12RB2/control [1] [ratio] | Response [2] | koff [3] [s⁻¹] | ELISA binding mIL-12RB2/control [4] [ratio] | ELISA binding mIL-12RB2/control [5] | ELISA binding hIL-12RB2/control [6]
1 | anti-IL-12Rβ2 VHH clone 20358 (VHH, not shown: small tags and cut ends, tested as periplasmic extract; also called 3CAH34) VHH: QVQLQESGGGSVQPGGSLRLSCGASGFTFSSFGMHWFRQAPGKGQEWAATISSSGGTTYYSDSVKGRFTISRDNAKNTLYLQMNSLKPEDTALYYCARDVTGAVRGQGTQVTVSS | 5.01 | 0.69 | 0.00636 | 1.12 |  | 
2 | anti-IL-12Rβ2 VHH clone 20408 (VHH, not shown: small tags and cut ends, tested as periplasmic extract; also called 3CAHS172) VHH: QVQLQESGGGSVQAGGSLRLSCGASGFTFSSFGMHWFRQAPGKGQEWVATISSSGGTTYYSDSVKGRFTISRDNAKNTLYLQMNSLKPEDTALYYCARDVTGAVRGQGTQVTVSS | 3.49 | 0.388 | 0.00383 | 1.11 |  | 
3 | anti-IL-12Rβ2 VHH clone 20404 (VHH, not shown: small tags and cut ends, tested as periplasmic extract; also called 3CAHS153) VHH: QVQLQESGGGLVQAGGSLRLSCAASGRTFSSYAMGWFRQVPGKERDFVAAVSWGGLSTYYADSVEGRFTISRDNAKNTVFLQMNSLKPEDTAVYYCAADRAYEGLGYGEYEYWGQGTQVTVSS | 3.32 | 0.163 | 0.00302 | 1.08 |  | 
4 | anti-IL-12Rβ2 VHH clone 20370 (VHH, not shown: small tags and cut ends, tested as periplasmic extract; also called 2CRH76) VHH: QVQLQESGGGLVQTGGSLRLSCVASGRTFNWSAMGWFRQPPGKEREVVATISGGGTSAYYADSVKGRFTISRDGAKNTLYLQMNSLKPEDTAVYYCAADRVDYRMTLTQNGNHYWGQGTQVTVSS | 4.57 | 0.479 | 0.00354 | 0.937 |  | 
5 | anti-IL-12Rβ2 VHH clone 20389 (VHH, not shown: small tags and cut ends, tested as periplasmic extract; also called 3CRH73) VHH: QVQLQESGGGLVRAGGSLRLSCAASGHTFSNYVMGWFRQAPGKEREFVAAISWGGSNTYYADSVKGRFTISRDNAKNTVYLQMNSLKVEDTAVYYCAADRRFEGWNYYSMDYWGKGTQVTVSS | 6.45 | 0.565 | 0.0052 | 1.18 |  | 
6 | anti-IL-12Rβ2 VHH clone 20391 (VHH, not shown: small tags and cut ends, tested as periplasmic extract; also called 3CRH93) VHH: QVQLQESGGGLVQAGGSLRLSCAASGRTVDSYAMGWFRQTPGKEREFVAASWGGGSTYYADSVKGRFTISRDNVKNTMYLQMDSLKPEDTAVYYCAAGPTYYSGPINDNWEGRYDSWGQGTQVTVSS | 3.45 | 0.426 | 0.00486 | 1.38 |  | 

More lines, now with the values ahead:

Row | ELISA binding hIL-12RB2/control [1] [ratio] | Response [2] | koff [3] [s⁻¹] | ELISA binding mIL-12RB2/control [4] [ratio] | ELISA binding mIL-12RB2/control [5] | ELISA binding hIL-12RB2/control [6] | Binder
7 |  |  |  |  | 8.02 ratio to control | 1 ratio to control | anti-IL-12Rβ2 VHH clone 2CAM39 (VHH, Tested as periplasmic extract; CDR3 group 46; also called 20482) VHH: QVQLQESGGGLVQAGGSLRLSCAASGRTFSTYAMGWFRQAPGKEREFVAAISWSGGSTYYADSVKGRFTISRDNAKNTGYLQMNSLKPEDTAVYVCAADAEDPILYGSSWNNRRKEYDYWGQGTQVTVSS
8 |  |  |  |  | 6.41 ratio to control | 0.969 ratio to control | anti-IL-12Rβ2 VHH clone 2CAMS52 (VHH, Tested as periplasmic extract; CDR3 group 55; also called 20535) VHH: QVQLQESGGGLVQPGASLRLSCATSGPTLSTYAMGWFRQAPGKEREVVATISWSGGRVTYVDSVKGRFTISRDNAKNTAYLQMNRLRPDDTAVYTCAARESDYGAYDYWGQGTQVTVSS
9 |  |  |  |  | 10.4 ratio to control | 0.974 ratio to control | anti-IL-12Rβ2 VHH clone 2CAM45 (VHH, Tested as periplasmic extract; CDR3 group 47; also called 20485) VHH: QVQLQESGGGLVQAGGSLRLSCAASGFTFDDYAIGWFRQAPGKEREGISCISSSDYGTYYAGSVKGRFTISSDNAKNTVYLQMNSLKPEDTAVYYCAAEAISEYDCLGINYGMDYWGKGTQVTVSS
